Experiment [1] concerns the target Full-length recombinant HA (His-Tag), H1N1 hemagglutinin, GenScript Cat No. Z03181 (influenza A virus H1N1). Description: MST; labelled His-HA (NT647-HA) held constant, compound in 16 1:1 serial dilutions from 50 µM, PBS, 10 min at rt, standard-treated capillaries, Monolith NT.115pico, 10% LED power, high MST power, triplicate.
Experiment [2] shares this target. Description: SPR.
Experiment [3] has as its target T1, HA (H1N1 hemagglutinin, Cat No.: Z03181, GenScript) (Influenza A virus, UniProt C3W5S1).
T1 construct: Full-length recombinant HA (His-Tag) was immobilized; purchased GenScript Z03181-100
The experiment can be described thus: biochemical. Format: binding.

In experiment [4] the test system is A/Parma/24/09 H1N1 virus. More on the design: method as in Scala et al. (2017) [23]. The following applies: read-out: EC50 (concentration that reduced cytopathic effect by 50%); reference peptides; ref Scala et al. (2017) [23]; cited from earlier work. (Protection from cytopathic effect is a common read-out in antiviral testing.)
Experiment [5] concerns A/Parma/24/09 H1N1 virus. More on the design: method as in Scala et al. (2017) [23]. Conditions: read-out: IC50 (peptide concentration that inhibits virus-induced hemagglutination by 50%), reference peptides, ref Scala et al. (2017) [23]; cited from earlier work.

*1 amine or outer side, *2 acyl side, *3 side chain or, on linkers, in order; H or OH if unused. Where a SMILES comes first, the peptide text is derived from it. [ ]: non-standard residue; d: D form. N(2-mercaptoethyl)Gly = O=C(CN(CCS[*:3])[*:1])[*:2]; NMeS = CN[C@@H](CO)C(=O)O

T1 sequence (C3W5S1 entry or part of it, added parts left off): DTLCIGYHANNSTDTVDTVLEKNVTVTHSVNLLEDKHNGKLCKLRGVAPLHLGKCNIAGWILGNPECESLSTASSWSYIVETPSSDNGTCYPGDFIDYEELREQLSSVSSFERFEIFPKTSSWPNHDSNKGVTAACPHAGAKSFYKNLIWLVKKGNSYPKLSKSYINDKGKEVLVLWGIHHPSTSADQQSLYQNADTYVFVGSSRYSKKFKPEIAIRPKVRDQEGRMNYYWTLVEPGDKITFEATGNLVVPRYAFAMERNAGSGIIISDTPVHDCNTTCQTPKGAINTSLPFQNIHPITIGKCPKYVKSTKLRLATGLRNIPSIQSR

For the molecule SLNDC (peptide), the Kd in experiment [1] turned out to be 1340 nM. In the case of SLD(N-Me)C (peptide), the Kd was determined as 3800 nM in experiment [2] and 142 nM in experiment [1].

(N-Me)SLDC (peptide): the figures for the Kd in experiment [2] and in experiment [1] were 7600 nM and 24800 nM, respectively. Regarding `CC(=O)N[C@@H](CO)C(=O)N[C@@H](CC(C)C)C(=O)N[C@@H](CC(=O)O)C(=O)N(CCS)CC(N)=O` [Peptide 14, SLDNhC] (Ac-SLD[N(2-mercaptoethyl)Gly]-NH2), binding in experiment [3] was put at a Kd of 45.9 ± 10 nM. NhSLDC (peptide): the values for the Kd in experiment [2] and in experiment [1] were 6550 nM and 67.2 nM, respectively. Consider SK(N-Me)HS (peptide), for which the Kd in experiment [2] came out at 1260 nM; in experiment [1], 52.8 nM. As for SKH(N-Me)S (peptide), the Kd in experiment [1] amounted to 3040 nM. Regarding SLDC [Peptide 1], the EC50 in the experiment with A/Parma/24/09 H1N1 virus [4] is 0.0046 nM. Further, the IC50 in the experiment on A/Parma/24/09 H1N1 virus [5] was 6 ± 3 nM. Turning to S(N-Me)LDC (peptide), the values for the equilibrium dissociation constant (Kd) in experiment [2] and in experiment [1] were 580 nM and 32.5 nM, respectively.

Regarding SKHNhS (peptide), the Kd in experiment [2] stood at 430 nM; in experiment [1], 49.1 nM. `CC(=O)N[C@@H](CO)C(=O)N[C@@H](CCCCN)C(=O)N(CC(=O)N[C@@H](CO)C(N)=O)Cc1c[nH]cn1` [Peptide 17, SKNHS] showed a dissociation constant (Kd) in experiment [3] of 3070 ± 790 nM. With SNLDC (peptide), the Kd in experiment [2] amounted to 3810 nM; in experiment [1], 701 nM. Consider (N-Me)SKHS (peptide), for which the Kd in experiment [2] amounted to 4190 nM; in experiment [1] it was 336 nM. Regarding NhSKHS (peptide), the results for the Kd in experiment [2] and in experiment [1] were 2090 nM and 7400 nM, respectively. With SL(N-Me)DC (peptide), the Kd in experiment [1] was found to be 8800 nM. Still for that read-out and setting: as for SKNHS (peptide), the figure is 3070 nM. On to `CC(=O)N[C@@H](CO)C(=O)N[C@@H](CCCCN)C(=O)N[C@@H](Cc1c[nH]cn1)C(=O)N(C)[C@@H](CO)C(N)=O` [Peptide 10, SKH(N-Me)S] (Ac-SKH[NMeS]-NH2), for which, in experiment [3], the Kd came to 3040 ± 850 nM.

As for S(N-Me)KHS (peptide), the Kd in experiment [2] was 8330 nM; in experiment [1] it was 7930 nM. Consider SKHS [Peptide 2], for which the IC50 with A/Parma/24/09 H1N1 virus [5] is 1.5 ± 0.7 nM.

Regarding SLDNhC (peptide), the Kd in experiment [1] stood at 45.9 nM.

For the molecule SNKHS (peptide), the Kd in experiment [2] is 1700 nM; in experiment [1], 39.1 nM.

Broadly, the Kd is the concentration at which binding is half-saturated.

The values above are taken from PMC10531517, “Rational Design of Novel Peptidomimetics against Influenza A Virus: Biological and Computational Studies” (International Journal of Molecular Sciences, 2023).
